7 molecules from patent publication US20240247080A1, “GLP1/GIP/NPY2 RECEPTOR TRIPLE AGONISTS” (Boehringer Ingelheim International GmbH, priority 2022, published 2024) can be followed below.

What all share (experiment): cell-based or functional assay
In one assay the target is T1, human GIP receptor (human, UniProt P48546 22-466).
T1 sequence (looked up): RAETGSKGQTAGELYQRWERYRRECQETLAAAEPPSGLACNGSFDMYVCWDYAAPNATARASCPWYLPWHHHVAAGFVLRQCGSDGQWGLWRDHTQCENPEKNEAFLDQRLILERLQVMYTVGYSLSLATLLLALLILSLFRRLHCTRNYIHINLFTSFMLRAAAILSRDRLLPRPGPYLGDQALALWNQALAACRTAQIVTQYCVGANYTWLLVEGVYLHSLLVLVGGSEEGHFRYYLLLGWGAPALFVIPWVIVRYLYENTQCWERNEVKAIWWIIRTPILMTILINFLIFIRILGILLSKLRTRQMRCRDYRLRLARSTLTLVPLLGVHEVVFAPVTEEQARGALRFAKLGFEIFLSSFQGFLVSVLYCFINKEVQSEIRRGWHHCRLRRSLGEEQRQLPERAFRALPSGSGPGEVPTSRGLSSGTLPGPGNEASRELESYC

Assay [1] deals with T2, human neuropeptide Y2 receptor (human, UniProt P49146 1-381).
T2 sequence (looked up): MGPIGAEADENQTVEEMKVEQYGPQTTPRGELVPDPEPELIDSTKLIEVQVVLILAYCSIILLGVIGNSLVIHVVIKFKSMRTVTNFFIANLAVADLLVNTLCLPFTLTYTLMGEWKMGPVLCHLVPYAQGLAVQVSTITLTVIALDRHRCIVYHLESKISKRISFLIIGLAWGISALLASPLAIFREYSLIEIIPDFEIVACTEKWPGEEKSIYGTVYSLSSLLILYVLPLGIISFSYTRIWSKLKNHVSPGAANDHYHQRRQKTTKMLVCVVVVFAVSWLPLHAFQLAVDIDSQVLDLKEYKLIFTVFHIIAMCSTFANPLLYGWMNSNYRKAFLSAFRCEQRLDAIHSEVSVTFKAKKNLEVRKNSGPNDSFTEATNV

A further assay addresses human GLP-1 receptor (human, UniProt P43220 24-463).

Starred links: 1 amine or outer side, 2 acyl side, 3 side chain; linkers in the order of their positions; H or OH if unused. Non-standard residues stand in square brackets, D forms with d. Groups on a side chain read outwards from the residue. No end group written: not given here. *: point of attachment. C18 diacid = O=C(O)CCCCCCCCCCCCCCCCC(=O)*; γGlu = O=C(O)[C@H](CCC(=O)[*:2])N[*:1]; εLys = N[C@@H](CCCCN[*:1])C(=O)[*:2]; AEEA = NCCOCCOCC(=O)O; Aib = CC(C)(N)C(=O)O

B1: Compound 157 (peptide)
peptide: Y[Aib]EGTFTSDYSI[Aib]LEKQAQ[Aib]EFVQWLIK([AEEA-AEEA-Glu-Glu-Glu-C18 diacid])GGPSEGASLRHYYNWLTRQRY-NH2
With B1, in the assay with human GIP receptor, the “EC50 CreLuc hGIPR 0.5% hP” value stood at 0.38 nM and the “EC50 CreLuc hGIPR 100% hP” value was determined as 1.58 nM. In assay [1], the “EC50 CreLuc hNPY2R 0.5% hP” value was found to be 23.6 nM and the “EC50 CreLuc hNPY2R 100% hP” value is 86.9 nM. Also, in the assay with human GLP-1 receptor, the “EC50 CreLuc hGLP1R 0.5% hP” value worked out at 0.35 nM and the “EC50 CreLuc hGLP1R 100% hP” value was 9.05 nM.

B2: Compound 155 (peptide)
peptide: Y[Aib]EGTFTSDYSI[Aib]LEKQAQ[Aib]AFVQWLIK([εLys-Glu-Glu-Glu-Glu-Glu-C18 diacid])GGPEEGASLRHYYNWLTRQRY-NH2
On to B2, for which, in the assay with human GIP receptor, the “EC50 CreLuc hGIPR 0.5% hP” value was found to be 0.14 nM and the “EC50 CreLuc hGIPR 100% hP” value was found to be 1.43 nM. In assay [1], the “EC50 CreLuc hNPY2R 0.5% hP” value was determined as 17 nM and the “EC50 CreLuc hNPY2R 100% hP” value stood at 95 nM. Moreover, in the assay with human GLP-1 receptor, the “EC50 CreLuc hGLP1R 0.5% hP” value turned out to be 0.15 nM and the “EC50 CreLuc hGLP1R 100% hP” value turned out to be 7.18 nM.

B3: Compound 160 (peptide)
peptide: Y[Aib]EGTFTSDYSI[Aib]LEKQAQ[Aib]EFVQWLIK([AEEA-AEEA-γGlu-γGlu-γGlu-C18 diacid])GGPSEGASLRHYYNWLTRQRY-NH2
On to B3, for which, in the assay with human GIP receptor, the “EC50 CreLuc hGIPR 0.5% hP” value amounted to 0.33 nM and the “EC50 CreLuc hGIPR 100% hP” value turned out to be 0.91 nM. Also, in assay [1], the “EC50 CreLuc hNPY2R 0.5% hP” value worked out at 8.23 nM and the “EC50 CreLuc hNPY2R 100% hP” value came out at 21.9 nM. Also, in the assay with human GLP-1 receptor, the “EC50 CreLuc hGLP1R 0.5% hP” value is 0.3 nM and the “EC50 CreLuc hGLP1R 100% hP” value was found to be 6.31 nM.

B4: Compound 158 (peptide)
peptide: Y[Aib]EGTFTSDYSI[Aib]LEKQAQ[Aib]AFVEWLIK([AEEA-AEEA-γGlu-γGlu-γGlu-γGlu-C18 diacid])GGPSSPASLRHYYNWLTRQRY-NH2
On to B4, for which, in the assay with human GIP receptor, the “EC50 CreLuc hGIPR 0.5% hP” value is 0.11 nM and the “EC50 CreLuc hGIPR 100% hP” value was 0.84 nM. In assay [1], the “EC50 CreLuc hNPY2R 0.5% hP” value amounted to 15.8 nM and the “EC50 CreLuc hNPY2R 100% hP” value was 39.9 nM. In the assay with human GLP-1 receptor, the “EC50 CreLuc hGLP1R 0.5% hP” value turned out to be 0.09 nM and the “EC50 CreLuc hGLP1R 100% hP” value amounted to 3.25 nM.

B5: Compound 161 (peptide)
peptide: Y[Aib]EGTFTSDYSI[Aib]LEKQAQ[Aib]AFVEWLIK([AEEA-AEEA-γGlu-γGlu-γGlu-γGlu-C18 diacid])GGPEEPASLRHYYNWLTRQRY-NH2
Take B5: in the assay with human GIP receptor, the “EC50 CreLuc hGIPR 0.5% hP” value turned out to be 0.14 nM and the “EC50 CreLuc hGIPR 100% hP” value came out at 1.23 nM. In addition, in assay [1], the “EC50 CreLuc hNPY2R 0.5% hP” value was found to be 11.5 nM and the “EC50 CreLuc hNPY2R 100% hP” value turned out to be 41.7 nM. Further, in the assay with human GLP-1 receptor, the “EC50 CreLuc hGLP1R 0.5% hP” value stood at 0.21 nM and the “EC50 CreLuc hGLP1R 100% hP” value was 8.06 nM.

B6: Compound 156 (peptide)
peptide: Y[Aib]EGTFTSDYSI[Aib]LEKQAE[Aib]AFVQWLIK([AEEA-AEEA-γGlu-γGlu-γGlu-γGlu-C18 diacid])GGPSEGASLRHYYNWLTRQRY-NH2
Take B6: in the assay with human GIP receptor, the “EC50 CreLuc hGIPR 0.5% hP” value was 0.16 nM and the “EC50 CreLuc hGIPR 100% hP” value turned out to be 0.72 nM. In assay [1], the “EC50 CreLuc hNPY2R 0.5% hP” value is 13.5 nM and the “EC50 CreLuc hNPY2R 100% hP” value was found to be 26.5 nM. Further, in the assay with human GLP-1 receptor, the “EC50 CreLuc hGLP1R 0.5% hP” value is 0.18 nM and the “EC50 CreLuc hGLP1R 100% hP” value was 6.5 nM.

B7: Compound 159 (peptide)
peptide: Y[Aib]EGTFTSDYSI[Aib]LEKQAQ[Aib]EFVEWLIK([εLys-γGlu-γGlu-γGlu-γGlu-γGlu-C18 diacid])GGPSSGASLRHYYNWLTRQRY-NH2
With B7, in the assay with human GIP receptor, the “EC50 CreLuc hGIPR 0.5% hP” value was 0.35 nM and the “EC50 CreLuc hGIPR 100% hP” value was determined as 0.91 nM. Besides, in assay [1], the “EC50 CreLuc hNPY2R 0.5% hP” value came to 13.8 nM and the “EC50 CreLuc hNPY2R 100% hP” value was determined as 34.6 nM. Also, in the assay with human GLP-1 receptor, the “EC50 CreLuc hGLP1R 0.5% hP” value amounted to 0.19 nM and the “EC50 CreLuc hGLP1R 100% hP” value was 5.17 nM.
